According to IntAct's records for PubMed 30956113:

B1: Transmembrane 4 L6 family member 5 (Homo sapiens), O14894 (parent)
chain: MCTGKCARCVGLSLITLCLVCIVANALLLVPNGETSWTNTNHLSLQVWLMGGFIGGGLMVLCPGIAAVRAGGKGCCGAGCCGNRCRMLRSVFSSAFGVLGAIYCLSVSGAGLRNGPRCLMNGEWGYHFEDTAGAYLLNRTLWDRCEAPPRVVPWNVTLFSLLVAASCLEIVLCGIQLVNATIGVFCGDCRKKQDTPH
partner: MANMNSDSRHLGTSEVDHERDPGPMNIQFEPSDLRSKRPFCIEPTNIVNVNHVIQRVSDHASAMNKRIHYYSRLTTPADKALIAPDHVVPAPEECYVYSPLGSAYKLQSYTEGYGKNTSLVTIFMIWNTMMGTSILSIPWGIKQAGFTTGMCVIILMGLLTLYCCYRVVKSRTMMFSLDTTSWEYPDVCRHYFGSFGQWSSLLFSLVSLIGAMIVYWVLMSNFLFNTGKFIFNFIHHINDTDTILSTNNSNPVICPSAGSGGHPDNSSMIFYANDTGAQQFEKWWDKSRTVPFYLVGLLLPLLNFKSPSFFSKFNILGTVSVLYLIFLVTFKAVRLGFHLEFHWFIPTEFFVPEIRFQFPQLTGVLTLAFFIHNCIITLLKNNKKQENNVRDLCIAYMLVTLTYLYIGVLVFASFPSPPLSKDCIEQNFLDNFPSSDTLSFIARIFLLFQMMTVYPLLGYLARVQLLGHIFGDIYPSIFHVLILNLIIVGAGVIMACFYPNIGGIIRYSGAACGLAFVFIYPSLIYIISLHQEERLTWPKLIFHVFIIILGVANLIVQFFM
B2: Transmembrane 4 L6 family member 5 (Homo sapiens), O14894 (parent)
chain: B1 chain
B3: Transmembrane 4 L6 family member 5 (Homo sapiens), O14894 (parent)
chain: B1 chain
partner: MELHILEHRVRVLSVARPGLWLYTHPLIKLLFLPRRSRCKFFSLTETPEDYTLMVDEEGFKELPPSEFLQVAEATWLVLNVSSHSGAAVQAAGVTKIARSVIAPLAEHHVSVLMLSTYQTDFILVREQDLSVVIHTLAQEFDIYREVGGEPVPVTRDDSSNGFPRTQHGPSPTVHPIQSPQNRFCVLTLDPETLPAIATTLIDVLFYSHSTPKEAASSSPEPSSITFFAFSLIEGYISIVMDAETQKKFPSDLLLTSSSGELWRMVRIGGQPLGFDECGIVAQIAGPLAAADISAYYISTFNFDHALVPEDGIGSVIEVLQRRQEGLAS

Variants of: B1
Details: with SLC38A9, Q8NBW4

Row | effect of a mutation on the interaction | Variant
1 | with no effect | W124A

Variants of: B2
Details: with mtor_human MTOR

Row | effect of a mutation on the interaction | Variant
2 | with no effect | Y126S
3 | with no effect | N138A
4 | with no effect | W124A

Variants of: B3
Details: with cast1_human CASTOR1, Q8WTX7

Row | effect of a mutation on the interaction | Variant
5 | with no effect | W124A
